Data from patent publication US20110177065A1.

Biological target: IL-1 receptor (human) (UniProt P14778)
Experiment: cell-based or functional assay

Sequence of UniProt P14778 (P14778 18-569): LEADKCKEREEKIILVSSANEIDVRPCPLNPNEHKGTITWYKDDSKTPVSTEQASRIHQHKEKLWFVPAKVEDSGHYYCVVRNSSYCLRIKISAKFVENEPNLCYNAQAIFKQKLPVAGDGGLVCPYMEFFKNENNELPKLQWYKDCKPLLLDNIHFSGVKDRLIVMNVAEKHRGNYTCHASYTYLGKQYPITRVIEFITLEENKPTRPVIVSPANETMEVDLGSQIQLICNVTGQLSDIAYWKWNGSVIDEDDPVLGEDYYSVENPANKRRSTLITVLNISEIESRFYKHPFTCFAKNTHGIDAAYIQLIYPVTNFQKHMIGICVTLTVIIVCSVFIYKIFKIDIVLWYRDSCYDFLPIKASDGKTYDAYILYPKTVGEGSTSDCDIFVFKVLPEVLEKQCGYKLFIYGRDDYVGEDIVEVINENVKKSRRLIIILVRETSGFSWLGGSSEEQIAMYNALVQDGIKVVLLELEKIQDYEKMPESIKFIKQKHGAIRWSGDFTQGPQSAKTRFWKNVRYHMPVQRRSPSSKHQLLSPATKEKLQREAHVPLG

In the case of “IL-1 receptor antagonist (IL-1Ra) (from UniProt P18510 26-177) (ligand)”, the antiviral activity of IFN-gamma (endpoint of 50% protection from viral cytopathic effect, human WISH cells) was 125 IU/ml and the level of IL-18BP in HaCat culture supernatants after IFN-gamma (ELISA) was 0.35 ng/mL.
